Results published in the Human Domainome abundance scans (Beltran et al. 2025).

B1: Triacylglycerol hydrolase DDHD2, residues 389 to 447; numbered along this chain, O94830 (parent)
chain: TLEEDLKKLQLSEFFDIFEKEKVDKEALALCTDRDLQEIGIPLGPRKKILNYFSTRKNS

Variants of: B1
Test: abundance fitness (aPCA) (normalised: wild type 0, dead -1); higher = more abundant; growth selection in yeast, the domain comes from the species named
Settings: Homo sapiens

Abundance fitness, by site and new letter:
R46: V -0.52, W -1.27, Y -0.848
K47: A 0.296, C 0.136, F -0.772, G 0.101, H -0.376, I 0.193, L -0.087, M 0.58, N 0.254, P -0.627, Q 0.492, R -0.065, S 0.225, W -0.368, Y -0.524
K48: A 0.106, C -0.408, D -0.184, E 0.036, F -0.457, G -0.698, H -0.213, I 0.104, L -0.007, M 0.146, N -0.344, P -0.494, R 0.088, S -0.075, T 0.374, V 0.244, W -0.946, Y -0.566
I49: A -0.244, C -0.33, D -0.125, E -0.052, F -0.765, G -0.593, H -0.07, K -0.467, L -0.077, M -0.09, N -0.589, P -0.34, Q -0.307, R -0.489, S -0.046, T -0.301, V -0.215, W -0.477, Y -0.946
L50: A -0.415, C -0.215, D 0.14, F -0.008, G -0.291, H -0.087, I 0.096, K -0.218, M -0.209, N -0.483, P -0.401, Q -0.345, R -0.247, T -0.209, W -0.585
N51: A 0.151, C -0.323, D 0.209, E 0.18, G 0.061, H -0.148, I -0.93, K 0.044, L -0.185, M 0.084, P -0.37, Q 0.166, R 0.042, S 0.14, T 0.119, V -0.729, W -0.384, Y -0.475
Y52: A -0.08, C -0.459, D -0.088, E -0.075, F 0.172, G -0.34, H 0.231, I -0.387, K -0.3, L -0.354, M -0.21, N 0.151, P -0.313, Q 0.123, R -0.237, S -0.15, T -0.172, V -0.26, W -0.089
F53: A -0.282, C -0.029, D -0.03, E 0.221, G -0.213, H -0.285, I -0.085, K 0.031, L -0.324, M 0.023, N -0.073, Q -0.118, R -0.323, S -0.237, T -0.247, V -0.363, W -0.38, Y -0.027
S54: C -0.285, D -0.146, E -0.033, G -0.113, H -0.208, I -0.146, K -0.071, L -0.306, M 0.17, N -0.152, P -0.309, Q 0.055, R -0.122, T -0.097, V -0.409, W -0.471, Y -0.443
T55: A 0.058, C 0.041, D -0.067, E 0.214, F -0.482, G 0.007, H -0.146, I 0.122, K 0.178, L -0.072, N 0.166, P -0.079, Q 0.006, S -0.007, V -0.152, W -0.295, Y -0.159
R56: A 0.134, C -0.065, D 0.05, E 0.123, F -0.074, G -0.105, H -0.207, K -0.143
